Reference: patent US20060263849A1, “Glucagon-like peptide-1 analogs” (priority 2000, published 2006)
Values joined by “and” are separate entries in the source; they are usually repeats but may differ in a detail not shown here. Identical values can stand only once. Where no end group is shown, it is not given here.

How the values were obtained:
GLP-1 receptor = GLP-1 receptor activation, in vitro assays; type: cell-based; details: activity relative to the activity of GLP-1(7-37)OH
Excerpt: “Insulinotropic activity” refers to stimulating insulin secretion in response to elevated glucose levels, thereby causing glucose uptake by cells and decreased serum glucose levels. Insulinotropic activity can be assessed by methods known in the art, including using in vivo experiments and in vitro assays that measure GLP-1 receptor binding activity or receptor activation, e.g., assays employing pancreatic islet cells or insulinoma cells, as described in EP 619,322 to Gelfand, et al., and U.S. Pat. No. 5,120,712, respectively. The entire teachings of these references are incorporated herein by reference.
The ability of the GLP-1 compounds of the present invention to activate the GLP-1 receptor was assessed using in vitro assays such as those described in EP 619,322 to Gelfand, et al., and U.S. Pat. No. 5,120,712, respectively. The entire teachings of these references are incorporated herein by reference.

[1] = GLP Aggregation Assay (time to onset of aggregation, turbidity at 350 nm); type: physicochemical; details: for Aggregation Time: 0.3 mg/mL in 10 mM citrate, 10 mM phosphate, 150 mM NaCl, pH 7.4 to 7.5, 37° C., stirred, turbidity at 350 nm; for Aggregation Time in Hours: *Aggregation time determined at 30° C.
Procedure: GLP peptides of this invention were analyzed with respect to their potential to aggregate in solution. In general, peptides in solution were stirred at elevated temperature in a suitable buffer while recording turbidity at 350 nm as a function of time. Time to the onset of aggregation was measured to quantify the potential of a given GLP molecule to aggregate under these stressed conditions.
A GLP-1 compound was first dissolved under alkaline conditions (pH 10.5) for 30 minutes to dissolve any pre-aggregated material. The solution was then adjusted to pH 7.4 and filtered. Specifically, 4 mg of a lyophilized GLP-1 compound was dissolved in 3 ml of 10 mM phosphate/10 mM citrate. The pH was adjusted to 10.0-10.5 and held for 30 minutes. The solution was adjusted with HCl to pH 7.4 and filtered through a suitable filter, for example a Millex GV syringe filter (Millipore Corporation, Bedford, Mass.). This solution was then diluted to a final sample containing 0.3 mg/mL protein in 10 mM citrate, 10 mM phosphate, 150 mM NaCl, and adjusted to pH 7.4 to 7.5. […] Every five minutes the turbidity of the solution was measured at 350 nm on an AVIV Model 14DS UV-VIS spectrophotometer (Lakewood, N.J.). For 30 seconds prior to and during the measurement the solution was stirred using a magnetic stir bar from Starna Cells, Inc. (Atascadero, Calif.). An increase in OD at 350 nm indicates aggregation of the GLP-peptide. The time to aggregation was approximated by the intersection of linear fits to the pre-growth and growth phase according to method of Drake (Arvinte T, Cudd A, and Drake A F. (1993) J. Bio. Chem. 268, 6415-6422).
The cuvette was cleaned between experiments with a caustic soap solution (e.g., Contrad-70).
The results for a number of GLP-1 compounds of the present invention are reported in Table 1 as the time in hours required for the compound to aggregate.

[2] = Zinc precipitation of GLP-1 compounds (A280 of supernatant); type: physicochemical; details: HEPES pH 7.4, 22° C., 18 hours
Procedure: Individual GLP-1 compounds were prepared as described in Examples 1 or 2. 3 mg of an individual lyophilized GLP molecule was dissolved in 3 ml 0.1 M HEPES buffer pH 10.5. The pH of the resulting solution was then adjusted to between 10.0 and 10.5 with 0.2 N NaOH. The solution was stirred at ambient temperature for 30 minutes and the solution was then adjusted to a pH of 7.4 with 0.2 N HCl. The solution was filtered through an appropriate syringe filter, for example a Millex GV syringe filter (Millipore Corporation, Bedford, Mass.), and the concentration of the GLP-1 compound was estimated by measuring the absorption at 280 nm in a spectrophotometer, for example a Beckman DU640. The protein concentration was then adjusted to 200 μM in HEPES pH 7.4.
The filtered GLP-1 solutions (100 μl) were diluted with 100 μl of 0.1 M HEPES pH 7.4 containing various levels of zinc chloride in an ELISA plate, (e.g. Falcon Microtest™ 96) resulting in 200 μl of solution containing various levels of zinc chloride and 100 μM GLP-1 compounds. These solutions were incubated at ambient temperature (22° C.) for 18 hours and then centrifuged, for example, in a Jouan CR412 centrifuge with microplate adapters. 150 μl of the supernatants after centrifugation were then transferred to a UV-readable ELISA microtiter plate (e.g. Costar UV plate) and the OD at 280 was determined in a microplate reader (e.g. Molecular Devices SPECTRAmax PLUS, SOFTmax PRO). A280 values are the result of two independent determinations.

[3] = Zn/GLP-1 molar ratio 0, 100 μM GLP-1 compound
[4] = Zn/GLP-1 molar ratio 0.3, 100 μM GLP-1 compound
[5] = Zn/GLP-1 molar ratio 0.5, 100 μM GLP-1 compound
[6] = Zn/GLP-1 molar ratio 0.7, 100 μM GLP-1 compound
[7] = Zn/GLP-1 molar ratio 1, 100 μM GLP-1 compound
[8] = Zn/GLP-1 molar ratio 2, 100 μM GLP-1 compound
[9] = Zn/GLP-1 molar ratio 3, 100 μM GLP-1 compound
[10] = Zn/GLP-1 molar ratio 5, 100 μM GLP-1 compound

Substance | GLP-1 Receptor Activation (GLP-1 receptor) | Aggregation Time [1] | also measured
Val^8-Lys^22-Glu^30-GLP-1(7-37)OH (HVEGTFTSDVSSYLEKQAAKEFIEWLVKGRG) | 0.37 | 4 h | 
Val^8-Lys^11-GLP-1(7-37)OH (HVEGKFTSDVSSYLEGQAAKEFIAWLVKGRG) | 0.001 | 13 h | 
Val^8-His^27-GLP-1(7-37)OH (HVEGTFTSDVSSYLEGQAAKHFIAWLVKGRG) | 0.37 | 10 h | 
Val^8-Glu^33-GLP-1(7-37)OH (HVEGTFTSDVSSYLEGQAAKEFIAWLEKGRG) | 0.039 | >70 h | 
Val^8-Gly^34-Lys^35-GLP-1(7-37)OH (HVEGTFTSDVSSYLEGQAAKEFIAWLVGKRG) | 0.34 | 27 h | 
Val^8-Lys^33-Val^34-GLP-1(7-37)OH (HVEGTFTSDVSSYLEGQAAKEFIAWLKVGRG) | 0.08 | 22 h | 
Val^8-Gly^36-Pro^37-GLP-1(7-37)NH2 (HVEGTFTSDVSSYLEGQAAKEFIAWLVKGGP-NH2) | 0.53 | 2 h | 
Val^8-GLP-1(7-37)OH [reference compound] |  | 0.9 ± 0.2 h | A280 [2, 3]: 0.3; A280 [2, 4]: 0.27; A280 [2, 5]: 0.26; A280 [2, 6]: 0.124; A280 [2, 7]: 0.06; A280 [2, 8]: 0.025; A280 [2, 9]: 0.021; A280 [2, 10]: 0.019
Val^8-Gly^33-GLP-1(7-37)OH (HVEGTFTSDVSSYLEGQAAKEFIAWLGKGRG) | 0.01 | 9 h | 
Val^8-His^22-GLP-1(7-37)OH (HVEGTFTSDVSSYLEHQAAKEFIAWLVKGRG) | 0.14 | >75 h | 
Val^8-Phe^22-GLP-1(7-37)OH |  |  | A280 [2, 3]: 0.31; A280 [2, 4]: 0.1485; A280 [2, 5]: 0.1165; A280 [2, 6]: 0.1015; A280 [2, 7]: 0.1265; A280 [2, 8]: 0.092; A280 [2, 9]: 0.061; A280 [2, 10]: 0.00795
Val^8-His^30-GLP-1(7-37)OH (HVEGTFTSDVSSYLEGQAAKEFIHWLVKGRG) | 0.19 | 13 h | 
Gly^8-His^11-GLP-1(7-37)OH (HGEGHFTSDVSSYLEGQAAKEFIAWLVKGRG) | 0.282 |  | Aggregation Time in Hours [1]: 9* Hours
Val^8-Leu^16-Glu^26-GLP-1(7-37)OH (HVEGTFTSDLSSYLEGQAAEEFIAWLVKGRG) | 0.23 | >20 h | 
Val^8-Glu^36-GLP-1(7-37)OH (HVEGTFTSDVSSYLEGQAAKEFIAWLVKGEG) | 0.11 | >45 h | 
Val^8-Asp^30-GLP-1(7-37)OH (HVEGTFTSDVSSYLEGQAAKEFIDWLVKGRG) | 0.15 | >45 h | 
Val^8-Tyr^16-GLP-1(7-37)OH (HVEGTFTSDYSSYLEGQAAKEFIAWLVKGRG) | 1.175 | 5 h | 
Val^8-Ala^33-GLP-1(7-37)OH (HVEGTFTSDVSSYLEGQAAKEFIAWLAKGRG) | 0.1 | 20 h | 

Substance | GLP-1 Receptor Activation (GLP-1 receptor) | Aggregation Time [1] | also measured
Val^8-His^37-GLP-1(7-37)OH (HVEGTFTSDVSSYLEGQAAKEFIAWLVKGRH) | 0.33 | >40 h | 
GLP-1(7-37)OH [reference compound] |  | 1 h | A280 [2, 3]: 0.337; A280 [2, 4]: 0.318; A280 [2, 5]: 0.329; A280 [2, 6]: 0.253; A280 [2, 7]: 0.148; A280 [2, 8]: 0.092; A280 [2, 9]: 0.081; A280 [2, 10]: 0.074
Val^8-Glu^34-GLP-1(7-37)OH (HVEGTFTSDVSSYLEGQAAKEFIAWLVEGRG) | 0.17 |  | Aggregation Time in Hours [1]: >40* Hours
Val^8-Ala^11-GLP-1(7-37)OH (HVEGAFTSDVSSYLEGQAAKEFIAWLVKGRG) | 0.021 | 10 h | 
Ala^8-His^26-GLP-1(7-37)OH (HAEGTFTSDVSSYLEGQAAHEFIAWLVKGRG) | 0.8 | >24 h | 
Val^8-Lys^23-GLP-1(7-37)OH (HVEGTFTSDVSSYLEGKAAKEFIAWLVKGRG) | 0.18 | >45 h | 
Val^8-Glu^23-GLP-1(7-36)OH (HVEGTFTSDVSSYLEGEAAKEFIAWLVKGR) | 0.28 | 65 h | 
Val^8-Ala^16-GLP-1(7-37)OH (HVEGTFTSDASSYLEGQAAKEFIAWLVKGRG) | 0.112 | 16 h | 
Val^8-Glu^22-Ala^27-GLP-1(7-37)OH (HVEGTFTSDVSSYLEEQAAKAFIAWLVKGRH) |  | >45 h | 
Val^8-Lys^22-GLP-1(7-36)NH2 (HVEGTFTSDVSSYLEKQAAKEFIAWLVKGR-NH2) | 0.53 | 24 h | 
Val^8-His^35-GLP-1(7-37)OH (HVEGTFTSDVSSYLEGQAAKEFIAWLVKHRG) | 0.41 | > 45 h and 30 h | 
Val^8-His^24-GLP-1(7-37)OH (HVEGTFTSDVSSYLEGQHAKEFIAWLVKGRG) | 0.007 | 3 h | 
Ala^8-Glu^26-GLP-1(7-37)OH (HAEGTFTSDVSSYLEGQAAEEFIAWLVKGRG) | 0.7 | >24 h | 
Gly^8-Glu^22-GLP-1(7-37)OH |  | 19 h | 
Val^8-His^36-GLP-1(7-37)OH (HVEGTFTSDVSSYLEGQAAKEFIAWLVKGHG) | 0.22 | 8 h | 
Gly^8-GLP-1(7-37)OH (HGEGTFTSDVSSYLEGQAAKEFIAWLVKGRG-OH; UniProt P01275 98-128, looked up, variant A8G) [reference compound] |  |  | A280 [2, 3]: 0.32; A280 [2, 4]: 0.166; A280 [2, 5]: 0.151; A280 [2, 6]: 0.156; A280 [2, 7]: 0.119; A280 [2, 8]: 0.089; A280 [2, 9]: 0.085; A280 [2, 10]: 0.078
Val^8-Ala^27-GLP-1(7-37)OH (HVEGTFTSDVSSYLEGQAAKAFIAWLVKGRG) |  | 2 h | 
